Results on two molecules are retold here after patent US20150147272A1, “RADIO-PHARMACEUTICAL COMPLEXES” (Algeta ASA, priority 2012, published 2015).

The target of test [1] is T1, CD33-positive HL-60 cells (Homo sapiens, UniProt P20138).
T1 construct: endogenous in cells; host or cells: HL-60 cells
The experiment in a line: Binding to CD33-positive HL-60 cells by flow cytometry. The conditions noted are these: compared with AGC0700. The procedure: Binding to CD33-positive HL-60 cells were studied by flow cytometry. The determination of EC50 based on the plotted curve gives an approximate value for the affinity. The commercially available mouse anti human CD33 (BD Pharmingen; #555450, 1 mg/mL) was used as a reference antibody for assessment of the affinity, including a setup with a 50:50 mixture with the mAb to be analyzed. This assay was also used to confirm that target binding affinity was not negatively affected by conjugation with the chelator.
HL-60 cells were grown in Iscove's Modified Dulbecco's Medium (IMDM; Invitrogen; #12440-046) in the presence of 20% of fetal bovine serum and penicillin/streptomycin. Approximately 20 mL cell culture was harvested by centrifugation at 4° C. for 5 min at 300 g. […] Subsequently, 20 μL of the preparation of resuspended cells was diluted 1:500 in Coulter Isoton II Diluent, and counted using a Beckman Coulter Z2 instrument (Beckman Coulter; CA, USA). […]
The mAb or conjugate to be analyzed was prepared fresh form frozen stock by shifting the storage buffer to PBS, kept at 4° C., and used within a few days after preparation. […] All samples were analysed in 96-well round or conical bottom plates. Fluorescent signals were recorded on a Beckham Coulter Cell lab Quant SC flow cytometer (Beckman Coulter; CA, USA). […]
A general note: In flow cytometry, cells or beads pass a laser one at a time.

The subject of test [2] is CD33 positive HL-60 cells. The experiment in a line: Th-227-induced in vitro cell cytotoxicity (CellTiter-Glo ATP viability). The conditions noted are these: 3 nM or 0.3 nM, specific activity 44 kBq/μg, followed to day 7. Type of test: cell-based, human. The procedure: In vitro cell cytotoxicity was investigated in CD33 positive HL-60 cells. AGC0715 and the control trastuzumab conjugated AGC0015 were used to chelate Th-227 to a specific activity of 44 kBq/μg. HL-60 cells were grown at 37° C. with 5% CO2, and split 1:5 three times a week. The day before the assay the culture medium (Iscove's Modified Dulbecco's Medium (IMDM) with 20% FBS and 1% Penicillin/Streptomycin) was replaced by new medium and the volume adjusted to give 400 000 cells per mL.
About, 1 600 000 cell (4 mL) were added to each well in a 6 well plate. The plate was incubated until next day for addition of labelled mAb, or culture medium. After adding labelled mAb, or culture medium, the plate was incubated for 4 additional hours. In one experiment AGC0715 or trastuzumab-AGC0015 was added to each well to a final concentration of 3 nM. In another experiment the final concentration was 0.3 nM.
Following incubation, the cells were washed twice in culture medium, and the ATP in the supernatant and in the pellet was measured. The cells were then split 1:2 and incubated in culture medium at 37° C. with 5% CO2. The same procedure, but with only one wash, was repeated at days 2, 4, and 7.
On the technique in general: In ATP-based viability assays light output follows the ATP content of the culture.

T1 sequence (P20138 18-364): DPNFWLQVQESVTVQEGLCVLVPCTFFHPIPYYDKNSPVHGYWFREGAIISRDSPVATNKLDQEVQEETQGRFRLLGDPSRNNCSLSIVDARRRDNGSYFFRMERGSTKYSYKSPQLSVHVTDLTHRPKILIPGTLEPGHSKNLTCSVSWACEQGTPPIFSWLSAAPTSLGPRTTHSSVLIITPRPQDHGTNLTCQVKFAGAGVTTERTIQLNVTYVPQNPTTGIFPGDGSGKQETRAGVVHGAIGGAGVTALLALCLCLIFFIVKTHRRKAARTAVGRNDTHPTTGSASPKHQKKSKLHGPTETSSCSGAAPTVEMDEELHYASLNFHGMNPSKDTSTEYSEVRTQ

B1: AGC0715: AGC0700 conjugated to the water soluble chelator AGC0015 (12) (conjugate)
heavy: QVQLVQSGAEVKKPGSSVKVSCKASGYTFTDYNMHWVRQAPGQGLEWIGYIYPYNGGTGYNQKFKSKATITADESTNTAYMELSSLRSEDTAVYYCARGRPAMDYWGQGTLVTVSSASTKGPSVFPLAPSSKSTSGGTAALGCLVKDYFPEPVTVSWNSGALTSGVHTFPAVLQSSGLYSLSSVVTVPSSSLGTQTYICNVNHKPSNTKVDKKVEPKSCDKTHTCPPCPAPELLGGPSVFLFPPKPKDTLMISRTPEVTCVVVDVSHEDPEVKFNWYVDGVEVHNAKTKPREEQYNSTYRVVSVLTVLHQDWLNGKEYKCKVSNKALPAPIEKTISKAKGQPREPQVYTLPPSRDELTKNQVSLTCLVKGFYPSDIAVEWESNGGQPENNYKTTPPVLDSDGSFFLYSKLTVDKSRWQQGNVFSCSVMHEALHNHYTQKSLSLSPG
light: DIQMTQSPSSLSASVGDRVTITCRASESVDNYGISFMNWFQQKPGKAPKLLIYAASNQGSGVPSRFSGSGSGTDFTLTISSLQPDDFATYYCQQSKEVPWTFGQGTKVEIKRTVAAPSVFIFPPSDEQLKSGTASVVCLLNNFYPREAKVQWKVDNALQSGNSQESVTEQDSKDSTYSLSSTLTLSKADYEKHKVYACEVTHQGLSSPVTKSFNRGEC
modifications: chelator AGC0015 (12) conjugated; site not stated; none, one or two chelators on a chain
As to B1, the binding affinity entry in test [1] was “comparable to the non-conjugated AGC0700”.

B2: AGC0715-Th-227: antibody-conjugate AGC0715 chelated with Th-227 (conjugate)
heavy: B1 heavy
light: B1 light
modifications: chelator AGC0015 (12) conjugated, chelating Th-227; site not stated
With B2, the “cellular toxicity (cell viability by ATP)” value in test [2] is “resulted in cellular toxicity”.
